Patent US20210371505A1

Assays:
Test in all cases: cell-based or functional assay
[1] = biological target: Hemagglutinin of influenza virus A/Philippines/01/1982 (H3N2) (Influenza A virus A/Philippines/01/1982 (H3N2))
[2] = biological target: Hemagglutinin of influenza virus A/Shanghai/01/2013-PR8 (H7N9) (Influenza A virus A/Shanghai/01/2013-PR8 (H7N9))
[3] = biological target: Hemagglutinin of influenza virus A/Aichi/02/1968-PR8-X31 (H3N2) (Influenza A virus A/Aichi/02/1968-PR8-X31 (H3N2)) (UniProt P03437)

Irrelevant/negative hIgG1 control (antibody)
IC50 of neutralization, cell viability microneutralization assay on MDCK cells [1]: > 3.33 µM
IC50 of neutralization, cell viability microneutralization assay on MDCK cells [2]: > 6.67 µM
IC50 of neutralization, cell viability microneutralization assay on MDCK cells [3]: > 0.833 µM
